In patent publication US20180086825A1 (published 2018):

Molecular target: T1, Ang2 protein (R&D systems) (human, UniProt O15123 19-496, limits assumed)
T1 sequence: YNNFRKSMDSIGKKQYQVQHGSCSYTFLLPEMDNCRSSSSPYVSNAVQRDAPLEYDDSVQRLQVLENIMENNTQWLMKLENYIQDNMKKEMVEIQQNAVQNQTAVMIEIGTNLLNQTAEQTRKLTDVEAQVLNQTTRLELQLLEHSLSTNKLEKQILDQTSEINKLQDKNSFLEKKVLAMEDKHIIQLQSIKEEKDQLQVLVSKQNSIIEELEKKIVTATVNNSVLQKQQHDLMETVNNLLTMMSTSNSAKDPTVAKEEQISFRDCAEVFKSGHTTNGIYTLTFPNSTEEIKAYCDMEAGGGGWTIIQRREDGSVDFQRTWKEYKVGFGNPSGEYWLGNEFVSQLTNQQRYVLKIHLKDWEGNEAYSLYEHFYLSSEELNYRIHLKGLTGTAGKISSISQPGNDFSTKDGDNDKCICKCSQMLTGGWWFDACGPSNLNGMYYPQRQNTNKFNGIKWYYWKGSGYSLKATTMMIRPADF
Assay: cell-based or functional assay

B1: SAIT-ANG2-AB-m10D6 (antibody, V domains shown)
VH: DVQLQESGPGLVKPSQSLSLTCTVTGYSITSDYAWNWIRQFPGNKLEWMGYINYSGNTDYNPSLKSRSSITRDTSKNQFFLQLNSVTTGDTATYYCARGNFEGAMDYWGQGTSVTVSS
VL: SIVMTQTPKFLLVSAGDRVTITCKASQSVSNDVAWYQQKPGQSPKLLIYYASNRYPGVPDRFTGSGYGTDFTFTISTVQAEDLAVYFCQQDYSSPWTFGGGTKLEIK
  Tie2 phosphorylation level (pTyr/Tie2 ratio, HUVEC, 60 nM antibody with Ang2): 180%
